Laboratory results taken from article PMC8752827 (Nature Communications, 2022).
Where no end group is shown, it is not given here.

B1: anti-IL-6 scFv (scFv, V domains shown)
VH: QVQLVESGGGLVQPGGSLRLSCAASGFNFNDYFMNWVRQAPGKGLEWVAQMRNKNYQYGTYYAESLEGRFTISRDDSKNSLYLQMNSLKTEDTAVYYCARESYYGFTSYWGQGTLVTVSG
VL: GIQMTQSPSSLSASVGDRVTITCQASQDIGISLSWYQQKPGKAPKLLIYNANNLADGVPSRFSGSGSGTDFTLTISSLQPEDFATYYCLQHNSAPYTFGQGTKLETG
B2: wild-type MCoTI-II fused to RGS (peptide)
peptide: SGSDGGVCPKILKKCRRDSDCPGACICRGNGYCGGAG
modifications: disulfide (positions not given here); also: three disulfides, pairing not given here, fused to RGS
notes: also called wtMCoTI-RGS; wtMCoTI
B3: anti-IL-6 Fab (Fab, V domains shown)
VH: EVQLQESGPGLVKPSQTLSLTCTVSGGSITTRYYAWSWIRQPPGKGLEWMGVIDYDGDTYYSPSLKSRTSISWDTSKNQFSLQLSSVTPEDTAVYYCARDPDVVTGFHYDYWGQGTQVTVSS
VL: QAVLTQPPLVSGTPGQTVTISCAGANNDIGTYAYVSWYQQLPGTAPKLLIYKVTTRASGIPSRFSGSKSGNTASLTISGLQSEDEADYYCASYRNFNNAVFGRGTHLTVL
B4: anti-HSA scFv (scFv, V domains shown)
VH: EVQLLESGGGLVQPGGSLRLSCAVSGIDLSNYAINWVRQAPGKGLEWIGIIWASGTTFYATWAKGRFTISRDNSKNTVYLQMNSLRAEDTAVYYCARTVPGYSTAPYFDLWGQGTLVTVSS
VL: DIQMTQSPSSVSASVGDRVTITCQSSPSVWSNFLSWYQQKPGKAPKLLIYEASKLTSGVPSRFSGSGSGTDFTLTISSLQPEDFATYYCGGGYSSISDTTFGGGTKVEIK
B5: anti-HSA Fab (Fab, V domains shown)
VH: B4 VH
VL: B4 VL

Columns and labels:
Settings in all cases: both partners purified
[1] = molecular target: human IL-6 (Homo sapiens, UniProt P05231); assay: pull-down; antibody fragment captured by RGS-tag on AC-resin co- or post-translationally, washed, treated with neutral buffer or 2 M GdnHCl/100 mM DTT then 1 M GdnHCl/10 mM GSH (or fully refolded from 6 M GdnHCl); incubated with 50 uL of 10 uM antigen for 3 h at RT; washed; eluted by boiling or by PreScission cleavage; SDS-PAGE
Chain of human IL-6 (P05231 30-212): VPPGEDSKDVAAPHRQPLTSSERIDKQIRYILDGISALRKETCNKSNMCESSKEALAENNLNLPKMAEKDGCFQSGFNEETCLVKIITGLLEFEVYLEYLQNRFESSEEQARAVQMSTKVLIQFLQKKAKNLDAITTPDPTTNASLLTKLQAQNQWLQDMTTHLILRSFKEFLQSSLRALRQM

[2] = molecular target: Trypsin (UniProt P00760 18-246); assay: enzyme inhibition assay (trypsin-inhibitory assay); 100 pM trypsin pre-incubated with peptide (twofold dilution series from 4 nM to 3.9 pM) for 3 h at room temperature in 0.1 M NaCl, 10 mM CaCl2, 0.005% Triton X-100, 0.1 M Tris-HCl pH 8.0; residual activity on Boc-Q-A-R-AMC (10 uM); Ki from IC50 by a tight-binding equation, Km 12 uM
Chain of Trypsin (P00760 24-246): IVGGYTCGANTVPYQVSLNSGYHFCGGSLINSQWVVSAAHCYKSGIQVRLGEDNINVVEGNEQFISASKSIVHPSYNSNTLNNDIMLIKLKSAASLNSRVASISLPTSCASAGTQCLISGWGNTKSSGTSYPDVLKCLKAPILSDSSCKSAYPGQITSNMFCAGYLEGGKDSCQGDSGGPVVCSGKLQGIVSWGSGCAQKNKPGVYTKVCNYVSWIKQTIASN

[3] = molecular target: T1, Human serum albumin (Homo sapiens, UniProt P02768); assay: pull-down; antibody fragment captured by RGS-tag on AC-resin co- or post-translationally, washed, treated with neutral buffer or 2 M GdnHCl/100 mM DTT then 1 M GdnHCl/10 mM GSH (or fully refolded from 6 M GdnHCl); incubated with 50 uL of 10 uM antigen for 3 h at RT; washed; eluted by boiling or by PreScission cleavage; SDS-PAGE
T1 construct: also called HSA

Row | Binder | binding result [1] | binding result [3] | also measured
1 | B1 | binds | – | –
2 | B2 | – | – | fold Ki against prmMCoTI [2]: ~4 fold
3 | B3 | binds | – | –
4 | B4 | – | binds | –
5 | B5 | – | binds | –
